B1: HEEH_KT_rd6_3546 (parent)
chain: SEEDKEREHWERLNRDFELRVLDTTFIAHHAEEVIKLLRWLEK

Variants of: B1
Test: folding stability dG (cDNA display proteolysis); higher = more stable
Conditions: PBS, room temperature

Folding stability dG [kcal/mol], by site and new letter:
T24: R 1.25; K 1.07; W 2.13; E 0.926; L 2.19; D 0.925; Q 1.02; N 1.28; F 2.01; G 0.995; A 1.41; P 1.22; V 2.13; M 1.82; H 1.13; I 2.24; Y 1.79; S 1.06
D23: W 2.85; A 2.35; F 3.18; N 1.45; L 2.86; S 1.94; K 1.6; I 3.03; V 3; M 2.76; R 1.87; Q 1.64; H 2.01; E 1.29; Y 2.92; G 1.64; T 2.27; P 1.35
L22: F 1.42; I 1.53; A 1.06; N 1.06; D 0.869; Y 1.67; Q 0.891; K 0.899; V 1.18; T 0.948; H 0.824; R 1.07; E 0.622; S 0.925; W 1.35; P 0.989; M 1.3; G 1.48
L38: D -0.361; C 1.78; G -0.072; A 0.316; E -0.1; K 0.405; I 1.09; F 1.39; H 0.371
I27: W 1.88; N 0.776; G 0.669; F 1.58; H 0.648; T 0.562; C 2.33; R 0.466; V 0.996; P 0.57; Y 1.25; A 0.784; E 0.508; Q 0.497; M 1.12; D 0.608; K 0.613; S 0.654; L 1.37
H29: F 2.21; S 1.59; G 1.17; M 1.98; A 1.49; I 2.5; E 1.45; K 1.77; P 0.857; W 2.01; Y 1.94; N 1.3; V 1.61; D 1.05; L 1.59; Q 1.23; R 1.68; C 1.85; T 1.35
A31: Q 0.833; S 0.872; K 1.09; R 1.07; N 0.698; V 2.1; G 0.934; T 1.33; E 0.663; P 0.618; I 2.19; C 2.24; F 1.96; L 1.94; D 0.6; W 2.28; H 0.66; Y 1.61; M 1.79
R20: V 1.68; Y 2.39; S 1.35; Q 1.05; P 0.684; M 1.63; N 1.23; W 2.38; T 1.4
L37: M 1.09; W 1.63; F 1.62; Q 0.133; E -0.07; I 1.23; H 0.36; V 0.922; S 0.285; N 0.031; T 0.61; A 0.846; G 0.136; P -0.172; D -0.437; Y 1.23; K 0.138; R 0.273
T25: P 0.992; Y 1.65; R 1.41; E 1.31; N 1.26; W 2.16; L 2.18; D 1.2; S 1.52; M 1.36; V 1.61; G 0.905; I 1.7; A 1.46; F 2.35; Q 0.911; K 1.16; H 1.29; C 1.75
K36: H 1.24; S 1.23; P 0.419; G 1.14; N 1.28; R 1.51; A 1.56; L 1.92; M 1.93; C 2.09; V 1.87; F 2.13; D 1; W 1.87; Y 1.82; T 1.28; Q 1.23; E 0.928; I 2.02
H30: F 2.3; I 2.09; D 0.85; C 1.6; A 2.04; M 2.34; Q 1.06; N 1.09; W 2.69; Y 2.05; V 2.38; E 0.893; S 1.23; T 1.72; R 1.07; P 0.902; L 2.38; K 1.13; G 1.44
F26: Q 0.576; G 0.568; S 0.703; A 0.696; M 0.674; T 0.642; K 0.504; Y 1.04; L 0.925; P 0.393; W 1.7; I 0.875; E 0.588; N 0.663; R 0.974; H 0.83; V 0.759; D 0.665
I35: Q 0.925; K 0.927; F 1.49; P -0.407; V 1.17; W 1.59; E 0.843; A 1.03; L 1.47; R 1.12; G 0.628; M 1.33; C 1.88; S 0.508; H 0.843; D 0.67; T 0.787; N 0.739; Y 1.33
E33: N 1.45; C 2.69; A 1.74; P 0.926; K 1.62; Y 2.16; M 2.06; V 2.06; T 1.47; H 1.41; G 1.47; Q 1.46; S 1.44; R 1.46; I 2.31; W 2.45; D 1.34; F 2.31; L 2.05
V34: G 0.3; L 1.57; T 0.62; A 1.06; S 0.133; E 0.228; D 0.006; M 1.2; N -0.04; Q -0.202; Y 1.06; K 0.1; H 0.255; W 1.47; I 1.75; F 1.61; R 0.162; C 1.54
V21: M 1.41; I 1.84; S 1.16; N 1.23; T 1.27; A 1.33; E 1.06; K 1.03; F 1.72; D 1.09; Y 1.5; R 1.41; W 1.95; G 1.49; H 1.22; Q 1.3; P 0.85; L 1.85
E32: K 1.54; D 1.23; Q 1.29; H 1.42; N 1.26; A 1.93; F 2.21; C 1.31; T 1.43; M 1.72; W 2.1; S 1.42; L 1.92; P 1.25; Y 1.9; V 1.79; I 1.73; R 1.37; G 1.2
A28: R 1.48; H 0.802; L 1.99; V 1.51; K 1.29; Q 0.99; M 1.84; Y 1.64; T 1.2; D 0.777; S 1.15; W 2.14; F 1.94; E 0.888; G 1.01; I 1.82; P 0.699; N 0.915; C 2.23
